Where two headings read alike, the source gives them in different places. Positions of bridges follow the written chain, without caps; N, C: chain ends. Non-standard residues stand in square brackets, D forms with d. Residues, ends and D or L forms follow the SMILES beside them. *: point of attachment. DOTA = O=C(O)CN1CCN(CC(=O)O)CCN(CC(=O)*)CCN(CC(=O)O)CC1
Experiment: Ex vivo biodistribution screen of 111In-labeled DOTA-TATE derivatives in normal mice
Set-up: species or system athymic nude mice
Conditions: 2 h post-injection; for tissue uptake at 2 h: athymic nude, mouse, iv, 1 ug per mouse, total radioactivity; for Relative kidney retention, % rel. to DOTA-TATE: normal mice, 111In-DOTA-TATE set as 100%
Description: The panel of 10 compounds were then tested in an initial biodistribution screen of 9 organs assessed in non-tumor-bearing mice at specific timepoints following administration of the radioconjugates. Each agent was initially labeled with ^111In, a long-lived gamma-emitting radioisotope suitable for biodistribution studies, with high radiochemical yields and purity (Fig. S12). The compounds were then dosed (1.55 ± 0.12 MBq; 1 μg per mouse) in healthy athymic nude mice via intravenous (i.v.) injection in phosphate-buffered saline (PBS; vehicle). After 2 hours, the mice were sacrificed and ex vivo biodistribution analysis was performed (Fig. 2). […] This was an expected finding because this variant was designed to bind serum albumin.
Radiolabeling and In Vivo Evaluation of DOTA-TATE Variants:
Biodistribution, PET Quantification, and Dosimetry
Radiolabeling: To perform the initial biodistribution screen, radiolabeling of 10 compounds, including DOTA-TATE, was carried out using 111In (Cardinal Health, Arbutus, MD, USA), an affordable and readily available gamma -emitting radioisotope with a moderate half -life (2.83 days), which affords efficient DOTA radiolabeling and facilitates handling. 111InCl3 (28 – 36 MBq) was diluted with 0.4 M NH 4OAc buffer (pH 5.2) and combined with DOTA -TATE variants (20 μg). The solution was mixed well and then incubated at 90 °C for 30 min.
Radiolabeling efficiency and radiochemical purity were determined by radio -TLC and radio - HPLC. Radiochemical yield was >95% and the material was used without further purification.
The specific activity was 1.55 ± 0.12 TBq/g (41.9 ± 3.2 Ci/g). […]
Radio-instant thin-layer chromatography (radio-iTLC) was performed using silicic acid-impregnated glass microfiber paper strips (iTLC-SA, Varian, Lake Forest, CA, USA) as the stationary phase, and 50 mM EDTA in 100 mM NH4OAc (pH 5.5) as the mobile phase, analyzed with a radio-TLC scanner (AR-2000, Eckert-Ziegler, Wilmington, MA, USA). For Ac-225, equilibration was allowed for at least 12 hours before scanning the TLC strips to confirm initial scans. Radio-HPLC analysis (Agilent 1260 Infinity II, Agilent Technologies Inc., Santa Clara, CA, USA) was conducted on a TSK- Octadecyl-4PW column (5 µm, 4.6 mm ID × 15 cm, Tosoh
Co. Tokyo, Japan) with gradient elution using 0.1% trifluoroacetic acid in water as mobile phase A and 0.1% trifluoroacetic acid in acetonitrile as Mobile phase B. The elution sequence was 0-5 […]
PET imaging and biodistribution: For initial biodistribution screen studies, normal mice were administered 1.4 – 1.8 MBq (1 μg) of 111In-DOTA-TATE variants via tail vein injection and biodistribution studies were conducted at 2 hours post -injection (n = 2 – 4 per cohort).
For studies involving three variants (DOTA -TATE, DOTA-MVK(ε)-TATE, and DOTA-β-Gal-TATE), AR42J cells (5 × 10^6 cells per mouse) were subcutaneously inoculated into the right shoulder of the mice. Tumors were allowed to grow for 3 weeks, reaching a volume of 100 –200 mm³ before being used in subsequent experiments. For biodistribution or PET imaging studies, mice bearing subcutaneous AR42J tumors were administered 1.4 – 1.8 MBq (1 μg) of 111In-labeled DOTA-TATE variants or 2.7 – 4.9 MBq (1 μg) of 86Y-labeled DOTA-TATE variants via tail vein injection. Biodistribution studies with 111In-labeled DOTA -TATE variants were performed 1 hour post -injection (n = 3 per cohort), while studies with 86Y-labeled DOTA-TATE variants were conducted at 1, 4, and 24 hours post -injection (n = 3 per cohort). Mice were euthanized by CO2 asphyxiation, and 10 tissues, including tumors, were collected. All samples were weighed and counted on a gamma counter (2480 Wizard 3, Perkin Elmer Inc., Waltham, MA, USA). Results are presented as percentage of injected activity per gram (%IA/g) and mean values ± standard deviations.
PET imaging to assess the uptake of three 86Y-labeled DOTA-TATE variants (2.7 – 4.9 MBq, 1 […]

[1] = blood, normal athymic nude mice, i.v. 1 μg (1.4–1.8 MBq), ex vivo gamma counting, mean, n = 2–4, read-out: Blood uptake
[2] = femur, normal athymic nude mice, i.v. 1 μg, ex vivo, mean, n = 2–4, read-out: Femur uptake
[3] = heart, normal athymic nude mice, i.v. 1 μg, ex vivo, mean, n = 2–4, read-out: Heart uptake
[4] = intestine, normal athymic nude mice, i.v. 1 μg, ex vivo, mean, n = 2–4, read-out: Intestine uptake
[5] = liver, normal athymic nude mice, i.v. 1 μg, ex vivo, mean, n = 2–4, read-out: Liver uptake
[6] = lung, normal athymic nude mice, i.v. 1 μg, ex vivo, mean, n = 2–4, read-out: Lung uptake
[7] = muscle, normal athymic nude mice, i.v. 1 μg, ex vivo, mean, n = 2–4, read-out: Muscle uptake
[8] = spleen, normal athymic nude mice, i.v. 1 μg, ex vivo, mean, n = 2–4, read-out: Spleen uptake

SMILES | tissue uptake at 2 h [1] [%ID/g] | tissue uptake at 2 h [2] [%ID/g] | tissue uptake at 2 h [3] [%ID/g] | tissue uptake at 2 h [4] [%ID/g] | tissue uptake at 2 h [5] [%ID/g] | tissue uptake at 2 h [6] [%ID/g] | tissue uptake at 2 h [7] [%ID/g] | tissue uptake at 2 h [8] [%ID/g] | Relative kidney retention, % rel. to DOTA-TATE [%] | tissue uptake at 2 h (kidney, normal athymic nude mice, i.v. 1 μg, ex vivo, mean (± SD), n = 2–4, read-out: Kidney uptake) [%ID/g] | Kidney uptake (normal athymic nude mice, i.v. 1 μg, ex vivo, mean (± SD), n = 2–4) [%IA/g] | tissue uptake at 2 h (in vivo, normal athymic nude mice, i.v. 1 μg (1.4–1.8 MBq), ex vivo gamma counting, mean, n = 2–4, read-out: Blood uptake) [%ID/g] | tissue uptake at 2 h (in vivo, normal athymic nude mice, i.v. 1 μg, ex vivo, mean (± SD), n = 2–4, read-out: Kidney uptake) [%ID/g] | tissue uptake at 2 h (in vivo, normal athymic nude mice, i.v. 1 μg, ex vivo, mean, n = 2–4, read-out: Femur uptake) [%ID/g] | tissue uptake at 2 h (in vivo, normal athymic nude mice, i.v. 1 μg, ex vivo, mean, n = 2–4, read-out: Heart uptake) [%ID/g] | tissue uptake at 2 h (in vivo, normal athymic nude mice, i.v. 1 μg, ex vivo, mean, n = 2–4, read-out: Intestine uptake) [%ID/g] | tissue uptake at 2 h (in vivo, normal athymic nude mice, i.v. 1 μg, ex vivo, mean, n = 2–4, read-out: Liver uptake) [%ID/g] | tissue uptake at 2 h (in vivo, normal athymic nude mice, i.v. 1 μg, ex vivo, mean, n = 2–4, read-out: Lung uptake) [%ID/g] | tissue uptake at 2 h (in vivo, normal athymic nude mice, i.v. 1 μg, ex vivo, mean, n = 2–4, read-out: Muscle uptake) [%ID/g] | tissue uptake at 2 h (in vivo, normal athymic nude mice, i.v. 1 μg, ex vivo, mean, n = 2–4, read-out: Spleen uptake) [%ID/g]
C[C@@H](O)[C@H](NC(=O)[C@@H]1CSSC[C@H](NC(=O)[C@@H](Cc2ccccc2)NC(=O)[C@H](Cc2ccc(O)cc2)NC(=O)CNC(=O)CN2CCN(CC(=O)O)CCN(CC(=O)O)CCN(CC(=O)O)CC2)C(=O)N[C@@H](Cc2ccc(O)cc2)C(=O)N[C@H](Cc2c[nH]c3ccccc23)C(=O)N[C@@H](CCCCN)C(=O)N[C@@H]([C@@H](C)O)C(=O)N1)C(=O)O [^111In-DOTA-GY-TATE, metal not drawn] ({DOTA}-GY[dF]CY[dW]KTCT-OH; disulfide 4-9) | 0.09 | 0.14 | 0.09 | 0.74 | 0.18 | 1.07 | 0.03 | 0.17 | 297 |  |  |  |  |  |  |  |  |  |  | 
C[C@@H](O)[C@H](NC(=O)[C@@H]1CSSC[C@H](NC(=O)[C@@H](Cc2ccccc2)NC(=O)CCCC(=O)Nc2cc(COC(=O)N(C)CCNC(=O)CN3CCN(CC(=O)O)CCN(CC(=O)O)CCN(CC(=O)O)CC3)ccc2O[C@@H]2O[C@H](C(=O)O)[C@@H](O)[C@H](O)[C@H]2O)C(=O)N[C@@H](Cc2ccc(O)cc2)C(=O)N[C@H](Cc2c[nH]c3ccccc23)C(=O)N[C@@H](CCCCN)C(=O)N[C@@H]([C@@H](C)O)C(=O)N1)C(=O)O [^111In-DOTA-GlcA-TATE, metal not drawn] | 0.08 | 0.1 | 0.08 | 0.44 | 0.13 | 0.19 | 0.03 | 0.08 | 147 | 8.88 |  |  |  |  |  |  |  |  |  | 
CSCC[C@H](NC(=O)CN1CCN(CC(=O)O)CCN(CC(=O)O)CCN(CC(=O)O)CC1)C(=O)N[C@H](C(=O)N[C@@H](CCCCN)C(=O)N[C@H](Cc1ccccc1)C(=O)N[C@H]1CSSC[C@@H](C(=O)N[C@H](C(=O)O)[C@@H](C)O)NC(=O)[C@H]([C@@H](C)O)NC(=O)[C@H](CCCCN)NC(=O)[C@@H](Cc2c[nH]c3ccccc23)NC(=O)[C@H](Cc2ccc(O)cc2)NC1=O)C(C)C [^111In-DOTA-MVK-TATE, metal not drawn] ({DOTA}-MVK[dF]CY[dW]KTCT-OH; disulfide 5-10) | 0.09 | 0.25 | 0.07 | 0.78 | 0.25 | 0.51 | 0.02 | 0.18 | 1251 |  | 75.65 |  |  |  |  |  |  |  |  | 
C[C@@H](O)[C@H](NC(=O)[C@@H]1CSSC[C@H](NC(=O)[C@@H](Cc2ccccc2)NC(=O)CCCC(=O)Nc2cc(COC(=O)N(C)CCNC(=O)CN3CCN(CC(=O)O)CCN(CC(=O)O)CCN(CC(=O)O)CC3)ccc2O[C@@H]2O[C@H](CO)[C@@H](O)[C@H](O)[C@H]2O)C(=O)N[C@@H](Cc2ccc(O)cc2)C(=O)N[C@H](Cc2c[nH]c3ccccc23)C(=O)N[C@@H](CCCCN)C(=O)N[C@@H]([C@@H](C)O)C(=O)N1)C(=O)O [^111In-DOTA-β-Glu-TATE, metal not drawn] |  |  |  |  |  |  |  |  | 105 |  |  | 0.09 | 6.34 | 0.21 | 0.07 | 1.07 | 0.19 | 0.51 | 0.03 | 0.16

Source: doi:10.1101/2025.09.11.675134, “Biodistribution-Driven Discovery Identifies a Glycosidase-Cleavable Linker to Reprogram Radiotheranostics” (bioRxiv, 2025)
